The values that follow come from article PMC6412877, “Novel Site-Specific Fatty Chain-Modified GLP-1 Receptor Agonist with Potent Antidiabetic Effects” (Molecules, 2019).

For one assay, the target named is Human GLP-1R (human) (UniProt P43220).
A further assay has as its target Mouse GLP-1R (mouse) (UniProt O35659).

Chain of Mouse GLP-1R (mouse) (O35659 22-463): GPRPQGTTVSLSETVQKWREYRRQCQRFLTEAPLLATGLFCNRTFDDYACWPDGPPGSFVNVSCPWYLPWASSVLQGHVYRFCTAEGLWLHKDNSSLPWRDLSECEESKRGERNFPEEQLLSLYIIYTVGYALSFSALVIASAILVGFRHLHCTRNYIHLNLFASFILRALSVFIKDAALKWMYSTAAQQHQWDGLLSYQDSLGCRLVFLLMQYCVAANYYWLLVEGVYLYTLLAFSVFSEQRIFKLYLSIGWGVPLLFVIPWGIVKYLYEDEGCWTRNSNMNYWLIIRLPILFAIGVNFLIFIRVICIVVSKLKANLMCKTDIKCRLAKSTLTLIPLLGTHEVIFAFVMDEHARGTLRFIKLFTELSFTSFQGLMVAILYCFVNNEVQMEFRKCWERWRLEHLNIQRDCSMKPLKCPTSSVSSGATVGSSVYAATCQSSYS
Chain of Human GLP-1R (human) (P43220 24-463): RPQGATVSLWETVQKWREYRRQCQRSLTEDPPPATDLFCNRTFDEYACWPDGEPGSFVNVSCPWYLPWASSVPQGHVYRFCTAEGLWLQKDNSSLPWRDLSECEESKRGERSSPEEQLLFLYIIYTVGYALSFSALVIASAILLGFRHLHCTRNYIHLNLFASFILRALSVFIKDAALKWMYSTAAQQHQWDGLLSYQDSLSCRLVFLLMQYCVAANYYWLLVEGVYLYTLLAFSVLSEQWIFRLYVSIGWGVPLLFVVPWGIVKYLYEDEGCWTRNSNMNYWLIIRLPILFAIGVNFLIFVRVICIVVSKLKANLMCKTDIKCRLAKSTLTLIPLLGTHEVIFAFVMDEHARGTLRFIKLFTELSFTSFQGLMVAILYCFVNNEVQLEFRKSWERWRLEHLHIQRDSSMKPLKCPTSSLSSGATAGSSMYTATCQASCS

The substance “Exendin-4 (from UniProt P26349 48-87) (peptide)” displayed an EC50 (nM), Human GLP-1R activation, in vitro cell assay with Human GLP-1R (human) of 0.052 nM. The Emax (%), Mouse GLP-1R activation, in vitro cell assay in the assay with Mouse GLP-1R (mouse) was found to be 100%.
Consider Liraglutide (peptide), for which, in the assay with Mouse GLP-1R (mouse), the EC50 (nM), Mouse GLP-1R activation, in vitro cell assay stood at 0.185 nM and the Emax (%), Mouse GLP-1R activation, in vitro cell assay worked out at 89%.
